Measured values from patent publication US12385055B2, “Compositions and methods for production of salidroside, icariside D2, and precursors of salidroside and icariside D2” (Whitehead Institute for Biomedical Research, priority 2017, dated 2025).

What was measured:
[1] = target: Rhodiola rosea Rr4HPAAS, 4-hydroxyphenylacetaldehyde synthase, GenBank MF674522, SEQ ID NO: 2 (Rhodiola rosea, UniProt A0A2I6B3P0); experiment: Michaelis-Menten kinetics of Rr4HPAAS against aromatic amino acids; conditions: compared with L-tyrosine and L-DOPA; pH 8.0, 30° C.
Experimental: (§1) The AAS enzyme assays were performed in 100 μL of reaction buffer (50 mM Tris, pH 8.0) containing 50 μg of recombinant enzyme, 200 μM PLP. Kinetic reactions were incubated with a range of amino acid substrate concentrations (1 μM-4 mM) at 30° C. for 30 minutes prior to quenching with 100 μL of 0.8 M formic acid. […] Rr4HPAAS reactions were also analyzed by LC-MS-UV. 50 μL of reaction mixture was analyzed by an Ultimate 3000 liquid chromatography system (Dionex), equipped with a 150 mm C18 Column (Kinetex 2.6 μm silica core shell C18 100 Å pore, Phenomenex) and coupled to an UltiMate 3000 diode-array detector (DAD) in-line UV-Vis spectrophotometer (Dionex) and a TSQ Quantum Access MAX triple-quadrupole mass spectrometer (Thermo-Scientific). To resolve chromatographically L-tyrosine, tyrosol and 4-HPAAA, compounds were separated through the use of an isocratic mobile phase containing 50 mM monopotassium phosphate pH 4.6, 15% (v/v) acetonitrile and 0.5 mM octyl sulfate. Rr4HPAAS product formation was quantified using the UV absorbance at 280 nm and compared to analytical standards using the diode array detector wavelength at a wavelength range of 200-500 nm and chromatographic retention time. […]
(§2) Kinetic constants such as Km and Vmax were determined by fitting raw data to the Michaelis-Menten equation using the nonlinear regression function in Prism (version 7.0).

[2] = test system: N. benthamiana leaves; experiment: Agrobacterium-mediated transient expression in leaves with LC-HRAM-MS metabolic profiling; type: in vivo; conditions: leaves harvested 5 days after infiltration
Experimental: To further evaluate the biochemical function of R. rosea tyrosol glycoside biosynthetic genes in planta, these genes were expressed in N. benthamiana leaves using the Agrobacterium tumefaciens-mediated transient protein production technique (Sainsbury et al., 2009) followed by LC-HRAM-MS-based metabolic profiling. […] PsTyDC and the previously reported Petroselinum crispum 4HPAAS (Pc4HPAAS, GenBank: AAA33861) (Torrens-Spence et al., 2012) were also tested in parallel as controls. […] The chemical identity of these compounds was confirmed by both LC-HRAM-MS and nuclear magnetic resonance (NMR) analyses (FIGS. 20-26). […] Next, the in planta regio-specificity of RrT8GT and RrT4GT in tyrosol glycosylation was evaluated. […] Meanwhile, the accumulation of free tyrosol was reduced in these plants compared to those with Rr4HPAAS expression alone (FIG. 27). […]
Crown tissue and root tissue of a three-month-old R. rosea plant was harvested and stored at −80° C. before subsequent metabolomic analysis. […] The extracts were then analyzed by LC-HRAM-MS. […]

[3] = substrate: N[C@@H](Cc1ccc(O)c(O)c1)C(=O)O; experiment: purified protein, by the assay type; conditions: other: amino acid substrate 1 μM-4 mM, 200 μM PLP, pH 8.0, 30° C., 30 min, peroxide assay
[4] = substrate: N[C@@H](Cc1ccc(O)cc1)C(=O)O; experiment: purified protein, by the assay type; conditions: other: amino acid substrate 1 μM-4 mM, 200 μM PLP, pH 8.0, 30° C., 30 min, peroxide assay
Experimental: The AAS enzyme assays were performed in 100 μL of reaction buffer (50 mM Tris, pH 8.0) containing 50 μg of recombinant enzyme, 200 μM PLP. Kinetic reactions were incubated with a range of amino acid substrate concentrations (1 μM-4 mM) at 30° C. for 30 minutes prior to quenching with 100 μL of 0.8 M formic acid. […] Rr4HPAAS reactions were also analyzed by LC-MS-UV. 50 μL of reaction mixture was analyzed by an Ultimate 3000 liquid chromatography system (Dionex), equipped with a 150 mm C18 Column (Kinetex 2.6 μm silica core shell C18 100 Å pore, Phenomenex) and coupled to an UltiMate 3000 diode-array detector (DAD) in-line UV-Vis spectrophotometer (Dionex) and a TSQ Quantum Access MAX triple-quadrupole mass spectrometer (Thermo-Scientific). To resolve chromatographically L-tyrosine, tyrosol and 4-HPAAA, compounds were separated through the use of an isocratic mobile phase containing 50 mM monopotassium phosphate pH 4.6, 15% (v/v) acetonitrile and 0.5 mM octyl sulfate. Rr4HPAAS product formation was quantified using the UV absorbance at 280 nm and compared to analytical standards using the diode array detector wavelength at a wavelength range of 200-500 nm and chromatographic retention time. The reduction of aldehyde products was achieved by addition of saturated sodium borohydride in ethanol or by addition of 10 mM NADPH and 10 g of Rr4HPAR1 or Rr4HPAR2.

[5] = Hydrogen peroxide production from L-tyrosine by recombinant AAS candidates; type: biochemical; conditions: L-tyrosine as substrate
Experimental: FIG. 12 is a graph showing relative hydrogen peroxide production for the Rr4HPAAS, the RrAAS and the PsTyDC. 100 μL reaction mixtures containing 50 μg of recombinant enzyme, 2 mM L-tyrosine, 50 mM Tris pH 8.0 and 200 μM PLP were incubated at 30° C. for various time points prior to quenching with 100 μL of 0.8 M formic acid. Hydrogen peroxide levels of quenched reaction mixtures were subsequently analyzed using Pierce Quantitative Peroxide Assay Kit against a standard curve of hydrogen peroxide.
as §1, with “PLP.” for “PLP. Kinetic reactions were incubated with a range of amino acid substrate concentrations (1 μM-4 mM) at 30° C. for 30 minutes prior to quenching with 100 μL of 0.8 M formic acid.”, “To resolve chromatographically L-tyrosine, tyrosol and 4-HPAAA, compounds were separated through the use of an isocratic mobile phase containing 50 mM monopotassium phosphate pH 4.6, 15% (v/v) acetonitrile and 0.5 mM octyl sulfate.” left out

[6] = substrate: OCCc1ccc(O)cc1; experiment: Michaelis-Menten kinetics of RrT8GT (RrUGT33), tyrosol 8-O-glucosylation; type: biochemical, Rhodiola rosea; conditions: other: substrate tyrosol (0.01-5.0 mM), 10 mM UDP-glucose, pH 8.0, 30° C., 10 min
Experimental: Kinetic characterization of UGTs was conducted in 200 μL reaction buffer (50 mM Tris, pH 8.0) containing 10 mM UDP-glucose and various concentrations of tyrosol (0.01-5.0 mM). Reactions were started with addition of recombinant enzyme, incubated at 30° C. for 10 minutes, and quenched by addition of 200 μL of methanol. The reaction mixed was then analyzed by LC-HRAR-MS as described above. Compounds were separated by reversed-phase chromatography with a ramp gradient of solvent A (0.1% formic acid in H2O) and solvent B (0.1% formic acid in acetonitrile): 5% solvent B for 0.5 min, 5-55% solvent B over 6 min, 55-5% solvent B over 1.0 min and a final equilibration of 5% solvent B for 1 min with a flow rate at 0.6 mL/min. Product formation was measured using select ion monitoring in positive mode for a centroid center mass of 318.15. Product mass was calculated by comparison to a standard curve of the NMR verified plant purified salidroside and icariside D2 samples.
as §2

N[C@@H](Cc1c[nH]c2ccccc12)C(=O)O [L-tryptophan]
substrate preference (Michaelis-Menten kinetics, in words) [1]: much less preferred substrates

N[C@@H](Cc1ccccc1)C(=O)O [L-phenylalanine]
substrate preference (Michaelis-Menten kinetics, in words) [1]: much less preferred substrates

B1: PsTyDC: Papaver somniferum tyrosine decarboxylase, tested as control (protein, UniProt O82415 1-512, looked up)
Tyrosine decarboxylase: MGSLPTNNLESISLCSQNPLDPDEFRRQGHMIIDFLADYYKNVEKYPVRSQVEPGYLKKRLPESAPYNPESIETILEDVTNDIIPGLTHWQSPNYFAYFPSSGSIAGFLGEMLSTGFNVVGFNWMSSPAATELESIVMNWLGQMLTLPKSFLFSSDGSSGGGGVLQGTTCEAILCTLTAARDKMLNKIGRENINKLVVYASDQTHCALQKAAQIAGINPKNVRAIKTSKATNFGLSPNSLQSAILADIESGLVPLFLCATVGTTSSTAVDPIGPLCAVAKLYGIWVHIDAAYAGSACICPEFRHFIDGVEDADSFSLNAHKWFFTTLDCCCLWVKDSDSLVKALSTSPEYLKNKATESKQVIDYKDWQIALSRRFRSMKLWLVLRSYGVANLRTFLRSHVKMAKHFQGLIGMDNRFEIVVPRTFAMVCFRLKPTAIFKQKIVDNDYIEDQTNEVNVKLLESVNASGKIYMTHAVVGGVYMIRFAVGATLTEERHVTGAWKVVQEHTDAILGA
metabolites produced on expression of the enzyme alone [2]: no measurable production of tyrosol glycosides

B2: Rhodiola rosea Rr4HPAAS, 4-hydroxyphenylacetaldehyde synthase, GenBank MF674522, SEQ ID NO: 2 (Rhodiola rosea) (protein)
chain: MGSLPSPNDPSNTFNPMDLTELSTESKLVVDFITQYYQTLETRPVQPRVKPGFLTGQLPDKAPFHGESMEVILSDVNEKIVPGLTHWQSPNFHAYFPASSSNAGLLGELLCSGLSVIGFTWSSSPAATELENVVVDWMAKMLNLPSSFCFSGGGGGVLQANTCEAVLCTLAAARDKALNRVGDDQINKLVLYCSDQTHFTIHKGAKLIGIRSKNIKSITTKKENEFKLCPNDLRDAIRSDLEAGLVPFYVCGTIGTTALGVVDPIKELGKVAREFDLWLHVDGAYGGSACICPEFQHYLDGVDLVDSISMNAHKWLLSNLDCCFLWLQSPNALIESLAAEANFLKGGSEMVDYKDWQISLSRRFRAIKMWMVIRRYGVSNLIEHIRSDVSMAVRFEEMVAADDRFEIVFPRKFALVCFKLSSEKTPPGRDSELTRELMERVNSSGKAYLSGVQMGRIFFIRCVIGSSLTEERHVDNLWRLIQETAQSIVS
Km [3]: 1040 ± 100 µM
Km [4]: 420 ± 20 µM
kcat [4]: 4.92 ± 0.08 s⁻¹
kcat/Km [4]: 11700 M⁻¹ s⁻¹
metabolites produced on expression of the enzyme alone [2]: significant accumulation of both salidroside and icariside D2
hydrogen peroxide production [5]: much higher activity

B3: Rhodiola rosea RrT8GT (RrUGT33), tyrosol:UDP-glucose 8-O-glucosyltransferase, SEQ ID NO: 20 (Rhodiola rosea) (protein)
chain: MSLIEKPLTAIETREKPHAVCIPYPAQGHINPMMQLAKLLHHSGFHITFVHTEYNYDRLVKSQGSACVAGLPDFRFEAIPDGLPSTNGDVTQDIPLLSSSTSKTCLKPFKELLKRLQDKCKELPDDVPPLSCIVSDAAMSFTIDASEEFGVPIALLWTASACGFLGYTHYPYLIDRGVIPLKDESQLTNGYLDMSIDGIPCMEGIRLRDLPSFLRTTDLDDMMFSYILHEIKQVSRGSAIILNTFEALDHDVLDSLSKIYQNVILPVGPLHVSLNKIPKHYPLQSLSSNLWKDDTDCIPWLSSKASKSVIYVNFGSITTVSPKQIVEFAWGLANSKHPFLWIIRPDLVAGEASIIPQDFMDETKGRGLLAGWCDQELVLNHPSIGGFLTHCGWNSIIESISAGVPTVCWPFFAEQQTNCWFACKKWCIGMEMHTDVKRDEVDKLLRELMEGDKGEELKRKATNWKRLAEEAVSSTGLSTLNFRTLVNQVLLSKTKHIR
Km [6]: 1370 ± 50 µM
kcat [6]: 576.2 ± 5.68 s⁻¹
kcat/Km [6]: 421000 M⁻¹ s⁻¹
